Source: publication PMC11172336, “Exploring Syndecan-4 and MLP and Their Interaction in Primary Cardiomyocytes and H9c2 Cells” (Cells, 2024)
Numbering of substitutions follows the chain as printed. Values joined by “and” are separate entries in the source; they are usually repeats but may differ in a detail not shown here. Identical values can stand only once. Where no end group is shown, it is not given here. The star is where a group is joined. Biotin = O=C1N[C@H]2[C@H](CS[C@H]2CCCCC(=O)*)N1

B1: biotinylated MLP-WT peptide aa 125-154 (peptide)
peptide: not shown
modifications: N-terminal biotin tag
notes: source: synthetic peptide (GenScript, >80% purity)
B2: biotinylated MLP-WT peptide aa 50-79 (peptide, UniProt P50461 50-79, looked up)
peptide: Biotin-AAHESEIYCKVCYGRRYGPKGIGYGQGAGC
modifications: cysteine pairing not given here
notes: Muscle LIM Protein (MLP, CSRP3), human, 30-mer, residues 50-79, covering the end of LIM1 and the NLS; also called MLP peptide aa 50–79; source: synthetic peptide (GenScript, >80% purity)
B3: MLP, endogenous in adult rat primary cardiomyocytes (natural protein, UniProt P50463 1-194, looked up)
chain: MPNWGGGAKCGACDKTVYHAEEIQCNGRSFHKTCFHCMACRKALDSTTVAAHESEIYCKVCYGRKYGPKGIGFGQGAGCLSTDTGEHLGLQFQQSPKPARAATTSNPSKFSAKFGESEKCPRCGKSVYAAEKVMGGGKPWHKTCFPCAICGKSLESTNVTDKDGELYCKVCYAKNFGPTGIGFGGLTHQVEKKE
notes: Muscle LIM Protein (MLP, CSRP3), rat; source: endogenous, enriched subcellular fractions of freshly isolated adult rat LV cardiomyocytes
B4: recombinant 6xHis-MLP R64C (natural protein, human, UniProt P50461 1-194, looked up)
chain: B3 chain with D14E, R64C, K65R, F73Y, A101S, A102V, S111T, P146R, H188Q
notes: Muscle LIM Protein (MLP, CSRP3), human, with a patient mutation; source: bought: GenScript (recombinant protein, >80% purity); not shown: His6, N-terminal, kept
B5: recombinant 6xHis-MLP Q91L (natural protein, human, UniProt P50461 1-194, looked up)
chain: B3 chain with D14E, K65R, F73Y, Q91L, A101S, A102V, S111T, P146R, H188Q
notes: as for B4
B6: recombinant 6xHis-MLP W4R (natural protein, human, UniProt P50461 1-194, looked up)
chain: B3 chain with W4R, D14E, K65R, F73Y, A101S, A102V, S111T, P146R, H188Q
notes: Muscle LIM Protein (MLP, CSRP3), human, with a patient mutation; the eight mutated recombinant proteins are named in the abstract; source: bought: GenScript (recombinant protein, >80% purity); not shown: His6, N-terminal, kept
B7: recombinant 6xHis-MLP Y66C (natural protein, human, UniProt P50461 1-194, looked up)
chain: B3 chain with D14E, K65R, Y66C, F73Y, A101S, A102V, S111T, P146R, H188Q
notes: as for B4
B8: recombinant 6xHis-MLP C58G (natural protein, human, UniProt P50461 1-194, looked up)
chain: B3 chain with D14E, C58G, K65R, F73Y, A101S, A102V, S111T, P146R, H188Q
notes: as for B4
B9: recombinant 6xHis-MLP G72R (natural protein, human, UniProt P50461 1-194, looked up)
chain: B3 chain with D14E, K65R, G72R, F73Y, A101S, A102V, S111T, P146R, H188Q
notes: as for B4
B10: recombinant 6xHis-MLP K69R (natural protein, human, UniProt P50461 1-194, looked up)
chain: B3 chain with D14E, K65R, K69R, F73Y, A101S, A102V, S111T, P146R, H188Q
notes: as for B4
B11: recombinant 6xHis-MLP L44P (natural protein, human, UniProt P50461 1-194, looked up)
chain: B3 chain with D14E, L44P, K65R, F73Y, A101S, A102V, S111T, P146R, H188Q
notes: as for B4
B12: recombinant 6xHis-MLP-WT (natural protein, human, UniProt P50461 1-194, looked up)
chain: B3 chain with D14E, K65R, F73Y, A101S, A102V, S111T, P146R, H188Q
notes: Muscle LIM Protein (MLP), encoded by CSRP3, human, 194 amino acids; on the native blot a mixture of monomer, dimer, trimer and tetramer; also called full-length recombinant 6xHis-MLP-WT protein; Muscle LIM Protein; source: bought: GenScript (recombinant protein, >80% purity); not shown: His6, N-terminal, kept

Legend:
[1] = molecular target: B11; experiment: ELISA; wells coated with 10 µg of WT or mutated full-length 6xHis-MLP recombinant protein in PBS; biotinylated overlapping MLP-WT 30-mer peptides at 2–5 µM for two hours at 37 °C; signal of PBS-coated wells subtracted; settings: both partners purified
[2] = molecular target: B8; experiment: as above; settings: both partners purified
recombinant 6xHis-MLP-WT = molecular target: B12; experiment: as above; settings: both partners purified
[3] = molecular target: the molecule itself; experiment: immunoblotting under native conditions; 20 µg of cytoplasmic-, nuclear-, membrane- and cytoskeletal-enriched fractions of adult rat cardiomyocytes in native sample buffer, not boiled, SDS-containing running buffer; blot with C-terminal anti-MLP (#R06991)
[4] = molecular target: the molecule itself; experiment: immunoblotting under native conditions; 0.5 µg of recombinant 6xHis-MLP WT or mutated protein in native sample buffer, not boiled, SDS-containing running buffer; blot with C-terminal anti-MLP (#R06991); densitometry

Binder | binding result [4] | further results
B1 | – | binding result [1]: binds; binding result [2]: binds; binding result (recombinant 6xHis-MLP-WT): binds
B2 | – | binding result [2]: binds; binding result (recombinant 6xHis-MLP-WT): binds
B3 | – | stoichiometry N [3]: 2 and 3 and 4
B4 | binds | –
B5 | binds | –
B6 | binds | –
B7 | binds | –
B8 | binds | –
B9 | binds | –
B10 | binds | –
B11 | binds | –
B12 | – | stoichiometry N [4]: 2 and 3 and 4
